Test results: paper PMC6287623

Key:
[1] = target: Manα2Manα2Manα-ThrB27 insulin glycoform 13 (human); assay: AUC
[2] = target: unglycosylated human insulin 1 (human); assay: AUC

Substance	percent monomer [1] [%]	stoichiometry N [2]
Manα2Manα2Manα-ThrB27 insulin glycoform 13 (natural protein)	> 70	–
unglycosylated human insulin 1 (natural protein)	–	2
